Experimental data published in article PMC10866885.

Tests used:
[1] = molecular target: VEGFR1 C471R mutant fused to mCherry (human) (UniProt P17948)
[2] = molecular target: wild-type human VEGFR1 fused to mCherry (human) (UniProt P17948)

- diffusion coefficient (D confocal) of VEGFR1 C471R-mCherry on the plasma membrane of CHO cells by FRAP after 100 nM VEGF165, read as receptor dimerization [1]: 0.017 µm^2 s^−1
- diffusion coefficient (D confocal) of VEGFR1-mCherry on the plasma membrane of CHO cells by FRAP after 100 nM VEGF165, read as receptor dimerization [2]: 0.018 µm^2 s^−1
Substance: VEGF165 (ligand)
